Where a chain is given by its changes, count along the chain named. In names and notes the source's numbering stands. Entries after “also recorded” stand apart in the source; their conditions may differ.
B1: Wild-type PTP1B1-301: PTP1B catalytic domain, amino acid residues 1-301 (SEQ ID NO: 2) (protein)
chain: MEMEKEFEQIDKSGSWAAIYQDIRHEASDFPCRVAKLPKNKNRNRYRDVSPFDHSRIKLHQEDNDYINASLIKMEEAQRSYILTQGPLPNTCGHFWEMVWEQKSRGVVMLNRVMEKGSLKCAQYWPQKEEKEMIFEDTNLKLTLISEDIKSYYTVRQLELENLTTQETREILHFHYTTWPDFGVPESPASFLNFLFKVRESGSLSPEHGPVVVHCSAGIGRSGTFCLADTCLLLMDKRKDPSSVDIKKVLLEMRKFRMGLIQTADQLRFSYLAVIEGAKFIMGDSSVQDQWKELSHEDLEP
modifications: The sequence was designed and synthesized
B2: PTP1BY153A: PTP1B1-301 mutant with mutation in the L11 loop (protein, UniProt P18031 1-301, looked up, variant Y153A)
chain: B1 chain with Y153A
B3: PTP1BY152A: PTP1B1-301 mutant with mutation in the L11 loop (protein, UniProt P18031 1-301, looked up, variant Y152A)
chain: B1 chain with Y152A
B4: PTP1BYAYA: mutant of PTP1B1-301 having point mutations at Y152 and Y153 (Y152A/Y153A) within the L11 loop (protein)
chain: B1 chain with Y152A, Y153A
modifications: The sequence was designed and synthesized
notes: mutant of PTP1B1-301 having point mutations at Y152 and Y153 (Y152A/Y153A) within the L11 loop
B5: PTP1B1-284/Δ7: truncated PTP1B, residues 1-284, lacking the α7 helix (SEQ ID NO: 3) (protein)
chain: MEMEKEFEQIDKSGSWAAIYQDIRHEASDFPCRVAKLPKNKNRNRYRDVSPFDHSRIKLHQEDNDYINASLIKMEEAQRSYILTQGPLPNTCGHFWEMVWEQKSRGVVMLNRVMEKGSLKCAQYWPQKEEKEMIFEDTNLKLTLISEDIKSYYTVRQLELENLTTQETREILHFHYTTWPDFGVPESPASFLNFLFKVRESGSLSPEHGPVVVHCSAGIGRSGTFCLADTCLLLMDKRKDPSSVDIKKVLLEMRKFRMGLIQTADQLRFSYLAVIEGAKFIMGD
modifications: The sequence was designed and synthesized
B6: PTP1BL192A: PTP1B1-301 mutant with mutation in the α3 helix (protein)
chain: B1 chain with L192A
modifications: The sequence was designed and synthesized
notes: PTP1B1-301 mutant with mutation in the α3 helix
B7: PTP1BN193A: PTP1B1-301 mutant with mutation in the α3 helix (protein)
chain: B1 chain with N193A
modifications: The sequence was designed and synthesized
notes: as for B6
B8: PTP1BW291A: PTP1B1-301 mutant with point mutation in the α7 helix (protein, UniProt P18031 1-301, looked up, variant W291A)
chain: B1 chain with W291A
B9: PTP1BS295A/E297A: PTP1B1-301 double mutant in the α7 helix (protein, UniProt P18031 1-301, looked up, variant S295A E297A)
chain: B1 chain with S295A, E297A

Tested on: not listed separately
Assay: Circular dichroism thermal denaturation (melting temperature)
Assay type: physicochemical
Conditions: CD spectropolarimetry, thermal denaturation at 208 nm, 2.5 μM protein
Experimental: Circular dichroism (CD) spectropolarimetry was used to measure the melting temperatures of PTP1BYAYA, PTP1B1-301, and PTP1B1-284. CD measurements were performed on a Jasco J-815 CD spectropolarimeter. PTP1B samples were dialyzed at 4° C. into 10 mM sodium phosphate, pH 6.8, 150 mM NaCl. Samples were then diluted to a protein concentration of 2.5 μM and placed in a 0.2-cm glass cuvette. Wavelength scans were performed in the far-UV region from 260 to 195 nm at 25° C. at a speed of 20 nm/min. Thermal denaturation scans were performed at 208 nm from 25 to 90° C. at a scan speed of 1° C./min. Raw data were processed using the denatured protein analysis routine implemented in the SepctraAnalysis software and converted to mean residue molar ellipticity using the following equation: [θ]=θ/(10×C×1×n), where θ is ellipticity, C is the molar concentration, 1 is the cell path length in centimeters, and n is the number of residues. Plots are the average of three replicate scans.

Row | Molecule | melting point (Tm) [°C]
1 | B1 | 55.46
2 | B2 | 53.75
3 | B3 | 53.89
4 | B4 | 50.41
5 | B5 | 54.9
6 | B6 | 53.89
7 | B7 | 49.1

Same assay, conditions: CD spectropolarimetry, thermal denaturation at 208 nm, 2.5 μM protein; listed as PTP1B1-284

Row | Molecule | melting point (Tm) [°C]
8 | B5 | 54.87

Same assay, conditions: difference to PTP1B1-284

Row | Molecule | melting temperature lower than PTP1B1-284
9 | B4 | about 4.5 °C

Same assay, conditions: difference to PTP1B1-301

Row | Molecule | melting temperature lower than for PTP1B1-301
10 | B4 | about 5 °C

Target: T1, PTP1B1-301 (Homo sapiens, UniProt P18031)
T1 construct: His6 (cleaved yes); made in house; host or cells: E. coli
T1 sequence (P18031 1-301): B1 chain
Assay: NMR relaxation (R1, R2, hetNOE) of inhibitor-bound PTP1B1-301
Conditions: 1:3 ratio of PTP1B1-301 to inhibitor, compared to apo PTP1B1-301
Experimental: Inhibitors were titrated into 200 μM ^15N-PTP1B at molar ratios of 1:1; 1:2, 1:3, 1:5 and 2D [^1H, ^15N] TROSY spectra at 850 MHz were recorded for each titration point. Inhibitors were solubilized in D6-DMSO at 25 mM. CS for PTP1B in the 2D [^1H, ^15N] TROSY spectrum caused by the addition of D6-DMSO were negligible. Chemical shift differences (Δδ) between PTP1B and inhibitor-bound PTP1B (3:1 molar ratio) spectra were calculated using: […]
Changes in motions of the domains of PTP1B1-301 bound to TCS-401 were measured by detecting nuclear relaxation time data at 500 MHz. See, FIG. 8A and FIG. 8B. Fast-timescale backbone dynamics were measured for ligand-free and inhibitor-bound (at 3:1 molar ratios) PTP1B constructs at either 850 or 500 MHz 1H Larmor frequency. ^15N longitudinal (R1) and transverse (R2) relaxation rates and ^15N [^1H]-NOE (hetNOE) measurements were acquired. The hetNOE measurements were determined from a pair of interleaved spectra acquired with or without pre-saturation, and a recycle delay of 5 seconds (only at 500 MHz ^1H Larmor frequency). Error was determined using signal to noise ratio for a given peak.

Row | Molecule | effect of inhibitor binding on PTP1B1-301 ps-ns backbone dynamics
11 | CCc1oc2cc(S(=O)(=O)Nc3ccc(S(=O)(=O)Nc4nccs4)cc3)ccc2c1C(=O)c1cc(Br)c(O)c(Br)c1 [allosteric site inhibitor, 3-(3,5-Dibromo-4-hydroxy-benzoyl)-2-ethyl-benzofuran-6-sulfonic acid-(4-(thiazol-2-ylsulfamyl)-phenyl)-amide] | minimal effect
12 | O=C(O)C(=O)Nc1sc2c(c1C(=O)O)CCNC2 [TCS-401] | loss of motions in the α7 helix and part of the WPD loop

Tested on: PTP1B
Assay: Phosphatase activity of PTP1B constructs against pNPP (enzyme assay)
Assay type: biochemical, human
Conditions: FIG. 24, 25, 32B
Experimental: Phosphatase activity of PTP1B against the general PTP/DUSP substrate, p-nitrophenyl phosphate (pNPP), was tested in 50 mM HEPES pH 7.5, 150 mM NaCl, 0.5 mM TCEP. 40 μl of enzyme at a 1.5 μM concentration was added to 60 μl of pNPP substrate resuspended in the reaction buffer. See, FIG. 25. The final concentrations of pNPP used in this experiment were […]. The enzyme was incubated with the substrate at 30° C. for 30 min, after which 100 μl of 1 M NaOH was added to a final concentration of 0.5 M NaOH to quench the reaction. Absorbance was measured at 405 nm and the final concentration of p-nitrophenol (pNP) was calculated using the molar extinction coefficient of 18000 M-1 cm-1. A control reaction in which substrate was incubated in the absence of enzyme was subtracted from all other experimental values. All experiments were performed in triplicate.
Enzyme assays were performed at pH 7.5 with 0.15 μM PTP1B to compare the activities of wild-type PTP1B1-301 to mutants with mutations in the L11 loop: PTP1BY152A/F, PTP1BY153A/F, and PTP1BYAYA. See, FIG. 17. […] Ibid. […] Ibid. […] Ibid. […] Ibid. […] Ibid. […] Ibid.
Enzyme assays were performed at pH 7.5 with 0.015 μM PTP1B to compare the activities of wild-type PTP1B1-301 to mutants with mutations in the α3 helix such as PTP1BN193A. See, FIG. 27. […] Ibid. […] Ibid. […] Ibid. […] Ibid. […] Ibid. […] Ibid.
An enzyme assay was used to compare the activity of wild-type PTP1B1-301 to the activity of PTP1B1-284 P185G. See, FIG. 15. Enzyme assays were performed at pH 7.5 with 0.015 μM PTP1B to compare the activities of wild-type PTP1B1-301 to mutants with mutations in the α7 helix. See, FIG. 32A. In one embodiment, these point mutations were made in an amino acid sequence substantially similar to SEQ ID NO: 2.

Row | Molecule | phosphatase activity compared with other constructs (in words)
13 | B4 | much lower

Same assay, conditions: FIG. 24, 25, 32B; listed as PTP1BΔ7

Row | Molecule | phosphatase activity compared with other constructs (in words)
14 | B5 | lack the activity exhibited by wild-type PTP1B1; also recorded: much lower

Same assay, conditions: pNPP substrate, pH 7.5, 0.015 μM PTP1B (FIG. 27, 32A, 32B)

Row | Molecule | Km [µM] | kcat [s⁻¹]
15 | B1 | 460 ± 60 | 6.2 ± 0.3
16 | B5 | 970 ± 100 | 1.7 ± 0.07
17 | B6 | 610 ± 40 | 1.86 ± 0.04
18 | B7 | 830 ± 70 | 1.7 ± 0.06
19 | B8 | 990 ± 150 | 4.5 ± 0.3
20 | B9 | 580 ± 130 | 2.6 ± 0.13

Same assay, conditions: pNPP substrate, pH 7.5, 0.15 μM PTP1B (FIG. 17)

Row | Molecule | Km [µM] | kcat [s⁻¹]
21 | B1 | 460 ± 60 | 6.2 ± 0.3
22 | B2 | 930 ± 180 | 3.6 ± 0.29
23 | B3 | 960 ± 40 | 3.0 ± 0.06
24 | B4 | 450 ± 40 | 1.8 ± 0.05

Reference: US20160046684A1, “Methods and compositions for treatment of PTP1B-related diseases” (BROWN UNIVERSITY, priority 2014, published 2016)
